Measured values: US6322962A, “Sterol-regulated Site-1 protease and assays of modulators thereof” (Board of Regents, The University of Texas System, priority 1999, dated 2001)

Test system: SREBP-2
Assay: Immunoblot of cleavage of HSV-tagged SREBP-2 in transfected SRD-12B cells
Type: cell-based, hamster
Details: SRD-12B cells, HSV-tagged SREBP-2
Description: On day 0, SRD-12B cells were set up at a density of 6×10^5 cells/60-mm dish in medium B. On day 1, cells were transfected with 4 μg of the indicated plasmid DNA plus 12 μl of LipofectAMINE™ reagent (Life Technologies) according to the manufacturer's instructions with modifications as follows. LipofectAMINE™/DNA complexes were formed in 1 ml of serum-free medium for 15 min at room temperature, and 0.5 ml were added to 1 ml of serum-free medium per dish. […] After incubation at 37 ° C. for 20 h, the cells received N-acetyl-leucinal-leucinal norleucinal (ALLN) at a final concentration of 25 μg/ml. […] After boiling for 5 min, the proteins were subjected to SDS-PAGE and transferred to Hybond-C Extra nitrocellulose filters (Amersham). The filters were incubated with the antibodies described in the figure legends. […] Gels were calibrated with prestained molecular weight markers (New England Biolabs, Beverly, Mass.). Filters were exposed to X-Omat Blue XB-1 film (Kodak, Rochester, N.Y.) with intensifying screens at room temperature for the indicated time.
Cell membranes and nuclear extracts were subjected to electrophoresis and blotted with an antibody against the HSV epitope-tag.
In a more direct test for S1P catalytic activity, the mutant plasmids were transfected into the SRD-12B cells together with pTK-HSV-BP2. Membranes and nuclear extracts were subjected to SDS-PAGE and blotted with an antibody against the HSV-tagged SREBP-2 (FIG. 9B).
The inventors cotransfected cDNAs encoding wild-type S1P or one of the mutants. Cell membrane pellets and nuclear extracts were subjected to SDS-PAGE. and the NH2 -terminus of SREBP-2 was visualized by immunoblotting with anti-HSV (FIG. 16A).

Molecule | cleavage of SREBP-2 by S1P or S1P mutant
S1P-B: amino acids 138-1052 of SEQ ID NO:1 (protein) FAESDPIVPCNETRWSQKWQSSRPLRRASLSLGSGFWHATGRHSSRRLLRAIPRQVAQTLQADVLWQMGYTGANVRVAVFDTGLSEKHPHFKNVKERTNWTNERTLDDGLGHGTFVAGVIASMRECQGFAPDAELHIFRVFTNNQVSYTSWFLDAFNYAILKKIDVLNLSIGGPDFMDHPFVDKVWELTANNVIMVSAIGNDGPLYGTLNNPADQMDVIGVGGIDFEDNIARFSSRGMTTWELPGGYGRVKPDIVTYGAGVRGSGVKGGCRALSGTSVASPVVAGAVTLLVSTVQKRELVNPASVKQALIASARRLPGVNMFEQGHGKLDLLRAYQILSSYKPQASLSPSYIDLTECPYMWPYCSQPIYYGGMPTIVNVTILNGMGVTGRIVDKPEWRPYLPQNGDNIEVAFSYSSVLWPWSGYLAISISVTKKAASWEGIAQGHIMITVASPAETEAKNGAEHTSTVKLPIKVKIIPTPPRSKRVLWDQYHNLRYPPGYFPRDNLRMKNDPLDWNGDHVHTNFRDMYQHLRSMGYFVEVLGAPFTCFDATQYGTLLMVDSEEEYFPEEIAKLRRDVDNGLSLVIFSDWYNTSVMRKVKFYDENTRQWWMPDTGGANIPALNELLSVWNMGFSDGLYEGEFALANHDMYYASGCSIAKFPEDGVVITQTFKDQGLEVLKQETAVVENVPILGLYQIPAEGGGRIVLYGDSNCLDDSHRQKDCFWLLDALLQYTSYGVNPPSLSHSGNRQRPPSGAGLAPPERMEGNHLHRYSKVLEAHLGDPKPRPLPACPHLSWAKPQPLNETAPSNLWKHQKLLSIDLDKVVLPNFRSNRPQVRPLSPGESGAWDIPGGIMPGRYNQEVGQTIPVFAFLGAMVALAFFVVQISKAKSRPKRRRPRAKRPQLTQQTHPPRTPSV | active
S1P-A: amino acids 23-1052 of SEQ ID NO:1 (protein) DRLGKKAFEKASCPSCSHLTLKVEFSSTVVEYEYIVAFNGYFTAKARNSFISSALKSSEVDNWRIIPRNNPSSDYPSDFEVIQIKEKQKAGLLTLEDHPNIKRVTPQRKVFRSLKFAESDPIVPCNETRWSQKWQSSRPLRRASLSLGSGFWHATGRHSSRRLLRAIPRQVAQTLQADVLWQMGYTGANVRVAVFDTGLSEKHPHFKNVKERTNWTNERTLDDGLGHGTFVAGVIASMRECQGFAPDAELHIFRVFTNNQVSYTSWFLDAFNYAILKKIDVLNLSIGGPDFMDHPFVDKVWELTANNVIMVSAIGNDGPLYGTLNNPADQMDVIGVGGIDFEDNIARFSSRGMTTWELPGGYGRVKPDIVTYGAGVRGSGVKGGCRALSGTSVASPVVAGAVTLLVSTVQKRELVNPASVKQALIASARRLPGVNMFEQGHGKLDLLRAYQILSSYKPQASLSPSYIDLTECPYMWPYCSQPIYYGGMPTIVNVTILNGMGVTGRIVDKPEWRPYLPQNGDNIEVAFSYSSVLWPWSGYLAISISVTKKAASWEGIAQGHIMITVASPAETEAKNGAEHTSTVKLPIKVKIIPTPPRSKRVLWDQYHNLRYPPGYFPRDNLRMKNDPLDWNGDHVHTNFRDMYQHLRSMGYFVEVLGAPFTCFDATQYGTLLMVDSEEEYFPEEIAKLRRDVDNGLSLVIFSDWYNTSVMRKVKFYDENTRQWWMPDTGGANIPALNELLSVWNMGFSDGLYEGEFALANHDMYYASGCSIAKFPEDGVVITQTFKDQGLEVLKQETAVVENVPILGLYQIPAEGGGRIVLYGDSNCLDDSHRQKDCFWLLDALLQYTSYGVNPPSLSHSGNRQRPPSGAGLAPPERMEGNHLHRYSKVLEAHLGDPKPRPLPACPHLSWAKPQPLNETAPSNLWKHQKLLSIDLDKVVLPNFRSNRPQVRPLSPGESGAWDIPGGIMPGRYNQEVGQTIPVFAFLGAMVALAFFVVQISKAKSRPKRRRPRAKRPQLTQQTHPPRTPSV | inactive
